We go through eight molecules from patent US9937235B2, “Lipidated peptides as anti-obesity agents” (USTAV ORGANICKE CHEMIE A BIOCHEMIE AKADEMIE VED CR, V.V.I, priority 2012, dated 2018).

Read-outs that look alike come from different tables or passages of the source. Where a SMILES comes first, the peptide text is derived from it. Where no end group is shown, it is not given here. [ ]: non-standard residue; d: D form. The star is where a group is joined. Palmitoyl = CCCCCCCCCCCCCCCC(=O)*; Tridecanoyl = CCCCCCCCCCCCC(=O)*; Myristoyl = CCCCCCCCCCCCCC(=O)*; NMeA = CN[C@@H](C)C(=O)O; Nle = CCCC[C@H](N)C(=O)O; Dap = NC[C@H](N)C(=O)O

For experiment [1], the target named is T1, rat PrRP receptor (GPR10) in RC-4B/C cells (Rattus norvegicus, UniProt Q64121).
T1 construct: host or cells: RC-4B/C rat pituitary cell line
T1 sequence (Q64121 1-370): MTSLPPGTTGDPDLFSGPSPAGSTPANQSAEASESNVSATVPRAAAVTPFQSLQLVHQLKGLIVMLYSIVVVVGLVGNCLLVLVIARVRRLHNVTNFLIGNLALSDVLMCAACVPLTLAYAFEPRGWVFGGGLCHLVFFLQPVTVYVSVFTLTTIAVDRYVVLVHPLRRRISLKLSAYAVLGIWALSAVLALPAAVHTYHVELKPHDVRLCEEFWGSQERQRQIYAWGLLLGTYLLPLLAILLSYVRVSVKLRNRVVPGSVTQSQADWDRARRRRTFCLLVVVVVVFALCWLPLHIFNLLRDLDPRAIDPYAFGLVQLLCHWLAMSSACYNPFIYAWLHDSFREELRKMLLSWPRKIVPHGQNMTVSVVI
Briefly: Competitive binding to rat pituitary RC-4B/C cells. The method, then:
Competitive binding experiments were performed according to Motulsky and Neubig (Motulsky, A., et al., “Analyzing radioligand binding data,” Curr Protoc Neurosci, Chapter 7, Unit 7.5, 2002). The rat pituitary cell line RC-4B/C (ATCC, Manassas, USA) was grown on 24-well plates which had their bottom coated with polyethyleneimine. The cells were grown to the optimal density of 300-450 thousand per well. […] Plates were incubated for 60 minutes at room temperature. After incubation, the cells were solubilized in 0.1 mol/l solution of NaOH and the radioactivity bound to the cells was counted using a γ-counter. The experiments were performed in duplicate and repeated at least three times. For evaluation of competitive binding experiments, the program Graph Pad Prism Software (San Diego, Calif., USA) was used. A method of nonlinear regression assuming one-site binding was used.

In a further experiment the test system is fasted C57BL/6 mice. Kind of experiment: Food intake in fasted mice after SC administration. The format is in vivo, mouse. The note with it: fasted C57BL/6 mice, 5 mg/kg SC, 45 min. Put shortly: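 Male C57BL/6 mice, food-deprived 17 h, received saline, PrRP or lipidated analogs either SC at 1-10 mg/kg or ICV into the third ventricle at 4 nmol/mouse.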
Experiment [2] deals with T2, rat PrRP receptor in RC-4B/C cells (rat, UniProt Q64121 1-370).
T2 construct: whole, on cells; also called the rat receptor; GPR10
T2 sequence (looked up): T1 sequence (Q64121 1-370)
Briefly: competition with 125I-rat PrRP31 on RC-4B/C cells. The method, then: (§1) The rat pituitary cell line RC-4B/C (ATCC, Manassas, USA) was grown on 24-well plates which had their bottom coated with polyethyleneimine. The cells were grown to the optimal density of 300-450 thousand per well.
(§2) Plates were incubated for 60 minutes at room temperature. After incubation, the cells were solubilized in 0.1 mol/l solution of NaOH and the radioactivity bound to the cells was counted using a γ-counter. The experiments were performed in duplicate and repeated at least three times.

In experiment [3] the target is T2, rat PrRP receptor in RC-4B/C cells. Briefly: competition with 125I-rat PrRP31 on RC-4B/C cells; Ki by Cheng-Prusoff. The method, then: as §1, §2
For evaluation of competitive binding experiments, the program Graph Pad Prism Software (San Diego, Calif., USA) was used. A method of nonlinear regression assuming one-site binding was used.

The target of experiment [4] is T3, human PrRP receptor, GPR10, transfected in CHO cells (human, UniProt P49683 1-370).
T3 construct: whole, on cells; also called human GPR10 receptor; the human receptor GPR10 in CHO cells
T3 sequence (looked up): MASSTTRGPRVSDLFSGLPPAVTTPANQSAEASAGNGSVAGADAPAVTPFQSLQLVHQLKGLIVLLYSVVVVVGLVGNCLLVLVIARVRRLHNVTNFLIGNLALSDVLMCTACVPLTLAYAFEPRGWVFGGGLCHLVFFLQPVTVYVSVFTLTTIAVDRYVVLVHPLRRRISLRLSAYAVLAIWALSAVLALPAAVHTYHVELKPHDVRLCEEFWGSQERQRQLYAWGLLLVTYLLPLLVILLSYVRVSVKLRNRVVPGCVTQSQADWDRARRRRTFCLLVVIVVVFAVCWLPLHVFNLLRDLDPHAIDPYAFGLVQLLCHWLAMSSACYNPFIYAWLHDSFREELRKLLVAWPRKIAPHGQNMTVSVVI
Kind of experiment: competition with 125I-human PrRP31 on CHO cells with transfected human GPR10. Put shortly:
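Incubation lasted 60 min at room temperature. Cells were then solubilised in 0.1 mol/l NaOH and bound radioactivity γ-counted; duplicates, at least three repeats.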

The target of experiment [5] is T2, rat PrRP receptor in RC-4B/C cells. Kind of experiment: competition with 125I-rat PrRP31 on RC-4B/C cells. The source holds these as a separate data set.
[6] abbreviates: rat RC-4B/C cells, Table 5, read-out: C-4B/C cells ^25I-rat PrRP31 Ki.

For `CCCCCCCCCCCCCC(=O)N[C@H](C(=O)N1CCC[C@H]1C(=O)N[C@@H](CC(=O)O)C(=O)N[C@H](C(=O)N[C@@H](CC(N)=O)C(=O)N1CCC[C@H]1C(=O)N[C@@H](C)C(=O)N[C@@H](Cc1c[nH]c2ccccc12)C(=O)N[C@@H](Cc1ccc(O)cc1)C(=O)N(C)[C@@H](C)C(=O)N[C@@H](CO)C(=O)N[C@@H](CCCNC(=N)N)C(=O)NCC(=O)N[C@H](C(=O)N[C@@H](CCCNC(=N)N)C(=O)N1CCC[C@H]1C(=O)N[C@H](C(=O)NCC(=O)N[C@@H](CCCNC(=N)N)C(=O)N[C@@H](Cc1ccccc1)C(N)=O)C(C)C)[C@@H](C)CC)[C@@H](C)CC)[C@@H](C)O` [Analog 41] (Myristoyl-TPDINPAWY[NMeA]SRGIRPVGRF-NH2), the Ki in experiment [1] (setting [6]) was 0.46 ± 0.05 nM. For the molecule `CCCCCCCCCCCCCCCC(=O)N[C@@H](CO)C(=O)N[C@@H](CCCNC(=N)N)C(=O)N[C@@H](C)C(=O)N[C@@H](Cc1c[nH]cn1)C(=O)N[C@@H](CCC(N)=O)C(=O)N[C@@H](Cc1c[nH]cn1)C(=O)N[C@@H](CO)C(=O)N[C@@H](CCSC)C(=O)N[C@@H](CCC(=O)O)C(=O)N[C@H](C(=O)N[C@@H](CCCNC(=N)N)C(=O)N[C@H](C(=O)N1CCC[C@H]1C(=O)N[C@@H](CC(=O)O)C(=O)N[C@H](C(=O)N[C@@H](CC(N)=O)C(=O)N1CCC[C@H]1C(=O)N[C@@H](C)C(=O)N[C@@H](Cc1c[nH]c2ccccc12)C(=O)N[C@@H](Cc1ccc(O)cc1)C(=O)N[C@H](C(=O)NCC(=O)N[C@@H](CCCNC(=N)N)C(=O)NCC(=O)N[C@H](C(=O)N[C@@H](CCCNC(=N)N)C(=O)N1CCC[C@H]1C(=O)N[C@H](C(=O)NCC(=O)N[C@@H](CCCNC(=N)N)C(=O)N[C@@H](Cc1ccccc1)C(N)=O)C(C)C)[C@@H](C)CC)[C@@H](C)O)[C@@H](C)CC)[C@@H](C)O)[C@@H](C)O` [Analog 61] (Palmitoyl-SRAHQHSMETRTPDINPAWYTGRGIRPVGRF-NH2), the “Food intake in mice (5 mg/kg SC) % saline-treated group (45 min)” value with fasted C57BL/6 mice was found to be 2%. Besides, the Ki in experiment [1] (setting [6]) amounted to 0.41 ± 0.12 nM. Take `CCCCCCCCCCCCCC(=O)N[C@H](C(=O)N1CCC[C@H]1C(=O)N[C@@H](CC(=O)O)C(=O)N[C@H](C(=O)N[C@@H](CC(N)=O)C(=O)N1CCC[C@H]1C(=O)N[C@@H](C)C(=O)N[C@@H](Cc1c[nH]c2ccccc12)C(=O)N[C@@H](Cc1ccc(O)cc1)C(=O)N[C@@H](C)C(=O)N[C@@H](CO)C(=O)N[C@@H](CCCNC(=N)N)C(=O)NCC(=O)N[C@H](C(=O)N[C@@H](CCCNC(=N)N)C(=O)N1CCC[C@H]1C(=O)N[C@H](C(=O)NCC(=O)N[C@@H](CCCNC(=N)N)C(=O)N[C@@H](Cc1ccccc1)C(N)=O)C(C)C)[C@@H](C)CC)[C@@H](C)CC)[C@@H](C)O` [Analog 13] (Myristoyl-TPDINPAWYASRGIRPVGRF-NH2): the Ki in experiment [1] (^125I-rat PrRP31, RC-4B/C cells, Table 3, read-out: ^125I-rat PrRP31 Ki) turned out to be 0.41 ± 0.13 nM. As to `CCCCCCCCCCCCCCCC(=O)N[C@@H](CO)C(=O)N[C@@H](CCCNC(=N)N)C(=O)N[C@@H](C)C(=O)N[C@@H](Cc1c[nH]cn1)C(=O)N[C@@H](CCC(N)=O)C(=O)N[C@@H](Cc1c[nH]cn1)C(=O)N[C@@H](CO)C(=O)N[C@@H](CCCC)C(=O)N[C@@H](CCC(=O)O)C(=O)N[C@H](C(=O)N[C@@H](CCCNC(=N)N)C(=O)N[C@H](C(=O)N1CCC[C@H]1C(=O)N[C@@H](CC(=O)O)C(=O)N[C@H](C(=O)N[C@@H](CC(N)=O)C(=O)N1CCC[C@H]1C(=O)N[C@@H](C)C(=O)N[C@@H](Cc1c[nH]c2ccccc12)C(=O)N[C@@H](Cc1ccc(O)cc1)C(=O)N[C@H](C(=O)NCC(=O)N[C@@H](CCCNC(=N)N)C(=O)NCC(=O)N[C@H](C(=O)N[C@@H](CCCNC(=N)N)C(=O)N1CCC[C@H]1C(=O)N[C@H](C(=O)NCC(=O)N[C@@H](CCCNC(=N)N)C(=O)N[C@@H](Cc1ccccc1)C(N)=O)C(C)C)[C@@H](C)CC)[C@@H](C)O)[C@@H](C)CC)[C@@H](C)O)[C@@H](C)O` [Analog 19] (Palmitoyl-SRAHQHS[Nle]ETRTPDINPAWYTGRGIRPVGRF-NH2), the “Food intake in mice (5 mg/kg SC) % saline-treated group (45 min)” value in the experiment with fasted C57BL/6 mice is listed as 2%. The Ki in experiment [1] (setting [6]) turned out to be 0.51 ± 0.16 nM. Regarding TPDINPAWYTGRGIRPVGRF-NH2 [Rat PrRP20], the “% of PrRP31 binding” value in experiment [2] came out at 143%. In addition, the Ki in experiment [3] is 3.44 nM.

B1: analog no. 10 (peptide)
peptide: Myristoyl-TPDINPAWYTGRGIRPVGRF-NH2
SMILES: CCCCCCCCCCCCCC(=O)N[C@H](C(=O)N1CCC[C@H]1C(=O)N[C@@H](CC(=O)O)C(=O)N[C@H](C(=O)N[C@@H](CC(N)=O)C(=O)N1CCC[C@H]1C(=O)N[C@@H](C)C(=O)N[C@@H](Cc1c[nH]c2ccccc12)C(=O)N[C@@H](Cc1ccc(O)cc1)C(=O)N[C@H](C(=O)NCC(=O)N[C@@H](CCCNC(=N)N)C(=O)NCC(=O)N[C@H](C(=O)N[C@@H](CCCNC(=N)N)C(=O)N1CCC[C@H]1C(=O)N[C@H](C(=O)NCC(=O)N[C@@H](CCCNC(=N)N)C(=O)N[C@@H](Cc1ccccc1)C(N)=O)C(C)C)[C@@H](C)CC)[C@@H](C)O)[C@@H](C)CC)[C@@H](C)O
notes: myristoylated rat PrRP20
Consider B1, for which, in experiment [2], the “% of PrRP31 binding” value came out at 632%. Moreover, in experiment [3], the Ki was 0.78 nM.

B2: analog no. 4 (peptide)
peptide: [Dap](Tridecanoyl)RAHQHS[Nle]ETRTPDINPAWYTGRGIRPVGRF-NH2
modifications: N-terminus assumed
SMILES: CCCCCCCCCCCCC(=O)NC[C@H](N)C(=O)N[C@@H](CCCNC(=N)N)C(=O)N[C@@H](C)C(=O)N[C@@H](Cc1c[nH]cn1)C(=O)N[C@@H](CCC(N)=O)C(=O)N[C@@H](Cc1c[nH]cn1)C(=O)N[C@@H](CO)C(=O)N[C@@H](CCCC)C(=O)N[C@@H](CCC(=O)O)C(=O)N[C@H](C(=O)N[C@@H](CCCNC(=N)N)C(=O)N[C@H](C(=O)N1CCC[C@H]1C(=O)N[C@@H](CC(=O)O)C(=O)N[C@H](C(=O)N[C@@H](CC(N)=O)C(=O)N1CCC[C@H]1C(=O)N[C@@H](C)C(=O)N[C@@H](Cc1c[nH]c2ccccc12)C(=O)N[C@@H](Cc1ccc(O)cc1)C(=O)N[C@H](C(=O)NCC(=O)N[C@@H](CCCNC(=N)N)C(=O)NCC(=O)N[C@H](C(=O)N[C@@H](CCCNC(=N)N)C(=O)N1CCC[C@H]1C(=O)N[C@H](C(=O)NCC(=O)N[C@@H](CCCNC(=N)N)C(=O)N[C@@H](Cc1ccccc1)C(N)=O)C(C)C)[C@@H](C)CC)[C@@H](C)O)[C@@H](C)CC)[C@@H](C)O)[C@@H](C)O
notes: analog of rat PrRP31
B2: the “% of PrRP31 binding” value in experiment [2] is 967%. This molecule came in with a Ki in experiment [3] of 0.51 nM.

B3: analog no. 41 (peptide)
peptide: Myristoyl-TPDINPAWY[NMeA]SRGIRPVGRF-NH2
SMILES: CCCCCCCCCCCCCC(=O)N[C@H](C(=O)N1CCC[C@H]1C(=O)N[C@@H](CC(=O)O)C(=O)N[C@H](C(=O)N[C@@H](CC(N)=O)C(=O)N1CCC[C@H]1C(=O)N[C@@H](C)C(=O)N[C@@H](Cc1c[nH]c2ccccc12)C(=O)N[C@@H](Cc1ccc(O)cc1)C(=O)N(C)[C@@H](C)C(=O)N[C@@H](CO)C(=O)N[C@@H](CCCNC(=N)N)C(=O)NCC(=O)N[C@H](C(=O)N[C@@H](CCCNC(=N)N)C(=O)N1CCC[C@H]1C(=O)N[C@H](C(=O)NCC(=O)N[C@@H](CCCNC(=N)N)C(=O)N[C@@H](Cc1ccccc1)C(N)=O)C(C)C)[C@@H](C)CC)[C@@H](C)CC)[C@@H](C)O
B3: the Ki came out at 2.1 nM in experiment [4] and 0.46 nM in experiment [5].
